Source: PMC12355267, “Human Helicase DDX5 is Hijacked by SARS-CoV‑2 Nsp13 Helicase to Enhance RNA Unwinding” (ACS Omega, 2025)

Biological target: T1, SARS-CoV-2 Nsp13 helicase (SARS-CoV-2, UniProt P0DTD1 5325-5925)
T1 construct: also called Nsp13 helicase of SARS-CoV-2
Assay: BLI
Settings: both partners purified

B1: DDX5ΔC (1–484) (domain or fragment, human, UniProt P17844 1-484, looked up)
chain: MSGYSSDRDRGRDRGFGAPRFGGSRAGPLSGKKFGNPGEKLVKKKWNLDELPKFEKNFYQEHPDLARRTAQEVETYRRSKEITVRGHNCPKPVLNFYEANFPANVMDVIARQNFTEPTAIQAQGWPVALSGLDMVGVAQTGSGKTLSYLLPAIVHINHQPFLERGDGPICLVLAPTRELAQQVQQVAAEYCRACRLKSTCIYGGAPKGPQIRDLERGVEICIATPGRLIDFLECGKTNLRRTTYLVLDEADRMLDMGFEPQIRKIVDQIRPDRQTLMWSATWPKEVRQLAEDFLKDYIHINIGALELSANHNILQIVDVCHDVEKDEKLIRLMEEIMSEKENKTIVFVETKRRCDELTRKMRRDGWPAMGIHGDKSQQERDWVLNEFKHGKAPILIATDVASRGLDVEDVKFVINYDYPNSSEDYIHRIGRTARSTKTGTAYTFFTPNNIKQVSDLISVLREANQAINPKLLQLVEDRGSGRSR
notes: human DDX5 without the flexible C-terminal end, residues 1-484; also called C-terminal truncated form of DDX5; source: E. coli (gene optimized for E. coli expression, pETM-13), purified
B1: binds.
